The record followed here is patent US20260224736A1 (Sanofi, published 2026).

Assay [1] has as its target T1, human CD105 (human, UniProt P17813 26-658).
T1 construct: whole, on cells; The target is presented on primary human HSCs; also called HuCD105; endoglin
T1 sequence (looked up): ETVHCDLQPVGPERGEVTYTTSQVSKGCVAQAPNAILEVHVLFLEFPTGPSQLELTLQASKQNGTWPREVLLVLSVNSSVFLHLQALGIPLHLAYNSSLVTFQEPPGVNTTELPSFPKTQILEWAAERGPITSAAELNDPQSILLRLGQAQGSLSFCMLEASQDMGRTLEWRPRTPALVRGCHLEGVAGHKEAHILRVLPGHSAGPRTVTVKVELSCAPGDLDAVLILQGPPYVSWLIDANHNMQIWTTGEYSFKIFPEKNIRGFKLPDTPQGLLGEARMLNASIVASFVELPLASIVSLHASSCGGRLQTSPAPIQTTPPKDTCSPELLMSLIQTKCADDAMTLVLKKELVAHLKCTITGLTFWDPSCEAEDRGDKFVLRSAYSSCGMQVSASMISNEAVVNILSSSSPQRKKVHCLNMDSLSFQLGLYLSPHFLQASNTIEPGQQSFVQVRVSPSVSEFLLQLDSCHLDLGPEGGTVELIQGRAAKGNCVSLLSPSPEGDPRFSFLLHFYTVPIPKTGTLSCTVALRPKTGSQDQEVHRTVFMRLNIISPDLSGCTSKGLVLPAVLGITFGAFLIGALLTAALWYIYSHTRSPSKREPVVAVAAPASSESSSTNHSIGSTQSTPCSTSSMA
Description: flow cytometry of primary human HSCs treated with Fab-conjugated KC3 LNPs; DiI fluorescence as measure of LNP binding. The text has this:
(§1) For conjugation with full-length antibodies, the LNPs were fused with a streptavidin moiety, and the conjugated full-size antibodies were tagged with biotin. Specifically, lysine groups on the streptavidin were reacted with Traut's reagent to covalently attach thiol groups. The thiolated streptavidin was then conjugated to DSPE-PEG(2k)-maleimide via covalent coupling between the maleimide group and the thiol groups attached to the streptavidin. The streptavidin-fused lipid was then reacted with the biotinylated antibody. Finally, the lipid-streptavidin-antibody conjugate was inserted into the LNP by incubation at 60° C. for 1 hour. The LNPs also incorporated a fluorescent lipid dye,′,1′-Dioctadecyl-3,′,3′,3′-Tetramethylindocarbocyanine-5,5′-Disulfonic Acid (DiIC(18)5-DS). The GFP mRNA was used to measure transfection, as the mRNA must enter the cell and escape the endosome to be transcribed into protein, allowing for fluorescence. The DiIC(18)5-DS was used as a measure of LNP targeting because the cells will have DiI fluorescence so long as the LNPs are capable of binding to the HSCs. Therefore, GFP expression provided a measure of LNP transfection while DiI positive events were representative of Fabs that target H—SCs. […] The HSCs were incubated with the LNPs for 24 and 72 hours, after which the GFP fluorescence and DiI fluorescence were measured using flow cytometry.
On the technique in general: Flow cytometry measures light scatter and fluorescence of single cells or particles in a stream.

Assay [2] concerns the target T2, human CD117 (human, UniProt P10721 26-976).
T2 construct: whole, on cells; The target is presented on primary human HSCs, either in vitro or engrafted in NSG mice; No recombinant CD117 was used; also called HuCD117; c-kit
The description is as above.
Text: as §1

T2 sequence (P10721 26-976): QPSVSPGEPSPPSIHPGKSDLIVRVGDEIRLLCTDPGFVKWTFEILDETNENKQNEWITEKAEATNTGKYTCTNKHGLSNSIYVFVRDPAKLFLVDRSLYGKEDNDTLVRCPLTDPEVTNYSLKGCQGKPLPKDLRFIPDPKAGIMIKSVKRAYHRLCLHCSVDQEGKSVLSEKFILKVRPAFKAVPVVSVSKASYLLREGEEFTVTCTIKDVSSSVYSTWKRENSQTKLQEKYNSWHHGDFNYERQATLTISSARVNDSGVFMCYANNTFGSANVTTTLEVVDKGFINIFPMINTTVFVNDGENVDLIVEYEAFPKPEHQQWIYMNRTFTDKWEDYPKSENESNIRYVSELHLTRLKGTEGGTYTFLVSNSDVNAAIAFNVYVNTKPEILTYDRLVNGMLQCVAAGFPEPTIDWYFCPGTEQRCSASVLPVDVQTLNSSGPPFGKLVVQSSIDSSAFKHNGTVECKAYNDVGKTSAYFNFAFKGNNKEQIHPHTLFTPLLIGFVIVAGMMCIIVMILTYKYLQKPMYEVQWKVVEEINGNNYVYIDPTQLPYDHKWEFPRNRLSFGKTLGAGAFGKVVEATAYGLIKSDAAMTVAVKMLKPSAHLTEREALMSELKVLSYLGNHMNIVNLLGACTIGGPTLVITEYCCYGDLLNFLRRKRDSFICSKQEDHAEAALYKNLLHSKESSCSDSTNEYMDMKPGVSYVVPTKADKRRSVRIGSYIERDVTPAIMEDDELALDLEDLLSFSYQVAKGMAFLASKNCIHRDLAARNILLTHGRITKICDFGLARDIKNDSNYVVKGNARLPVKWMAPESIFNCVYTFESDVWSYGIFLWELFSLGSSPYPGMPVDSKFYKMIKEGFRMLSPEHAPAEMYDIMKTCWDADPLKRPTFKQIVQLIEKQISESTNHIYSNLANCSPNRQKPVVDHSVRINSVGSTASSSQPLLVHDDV

B1: anti-HuCD105 Ab3 Fab bDS (Fab, V domains shown)
VH: EVKLEESGGGLVQPGGSMKLSCAASGFTFSDAWMDWVRQSPEKGLEWVAEIRSKASNHATYYAESVKGRFTISRDDSKSSVYLQMNSLRAEDTGIYYCTRWRRFFDSWGQGTTLTVSS
VL: QIVLSQSPAILSASPGEKVTMTCRASSSVSYMHWYQQKPGSSPKPWIYATSNLASGVPVRFSGSGSGTSYSLTISRVEAEDAATYYCQQWSSNPLTFGAGTKLELKR
modifications: C-terminal cysteine in the heavy chain covalently coupled to DSPE-PEG(2k)-maleimide (lipid conjugate inserted into the LNP)
notes: Tested only as a lipid-Fab conjugate on the surface of LNPs
Take B1: the binding result in assay [1] was “binds”.

B2: anti-HuCD117 Ab2 Fab bDS (Fab, V domains shown)
VH: EVQLVESGGGLVQPGGSLRLSCAASGFTFSDADMDWVRQAPGKGLEWVGRTRNKAGSYTTEYAASVKGRFTISRDDSKNSLYLQMNSLKTEDTAVYYCAREPKYWIDFDLWGRGTLVTVSS
VL: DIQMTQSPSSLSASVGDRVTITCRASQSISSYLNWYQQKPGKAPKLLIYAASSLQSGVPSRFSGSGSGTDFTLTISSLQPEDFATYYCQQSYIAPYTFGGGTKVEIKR
modifications: C-terminal cysteine in the heavy chain covalently coupled to DSPE-PEG(2k)-maleimide (lipid conjugate inserted into the LNP)
notes: as for B1
For the molecule B2, the binding result in assay [2] is on record as “binds”.
